Measured values as given in patent US20240254223A1 (NOVIMMUNE, published 2024).

T1: low-moderate affinity dimeric IL-2R (IL-2Rβ and IL-2Rγ) on HEK-Blue CD122/CD132 cells (UniProt P14784 27-551; P31785 23-369, limits assumed)
T1 sequence (looked up) 1: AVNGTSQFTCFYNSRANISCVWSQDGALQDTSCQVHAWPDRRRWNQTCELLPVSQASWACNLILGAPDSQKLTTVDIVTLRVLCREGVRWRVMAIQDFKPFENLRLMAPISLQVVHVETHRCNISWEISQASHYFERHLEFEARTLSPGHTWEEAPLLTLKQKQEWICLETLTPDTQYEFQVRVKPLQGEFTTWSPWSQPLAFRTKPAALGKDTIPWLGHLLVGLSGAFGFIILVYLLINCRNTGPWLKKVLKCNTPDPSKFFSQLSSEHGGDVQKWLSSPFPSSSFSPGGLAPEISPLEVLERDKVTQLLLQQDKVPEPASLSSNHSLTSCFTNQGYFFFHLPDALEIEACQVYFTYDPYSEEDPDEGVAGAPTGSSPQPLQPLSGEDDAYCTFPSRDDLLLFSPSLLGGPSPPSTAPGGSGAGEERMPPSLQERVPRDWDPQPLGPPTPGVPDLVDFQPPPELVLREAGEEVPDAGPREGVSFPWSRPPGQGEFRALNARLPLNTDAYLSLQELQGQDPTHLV
T1 sequence (looked up) 2: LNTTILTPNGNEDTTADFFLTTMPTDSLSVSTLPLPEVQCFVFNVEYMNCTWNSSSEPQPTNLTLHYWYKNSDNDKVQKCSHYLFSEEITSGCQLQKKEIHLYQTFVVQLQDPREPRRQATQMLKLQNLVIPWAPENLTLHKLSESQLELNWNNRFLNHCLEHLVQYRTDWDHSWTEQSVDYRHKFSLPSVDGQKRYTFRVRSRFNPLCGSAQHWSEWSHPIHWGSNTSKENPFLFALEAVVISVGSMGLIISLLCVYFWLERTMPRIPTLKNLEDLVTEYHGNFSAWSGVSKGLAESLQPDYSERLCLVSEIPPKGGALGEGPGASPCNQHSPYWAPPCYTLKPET

T2: high affinity trimeric IL-2R (IL-2Rα, IL-2Rβ and IL-2Rγ) on HEK-Blue IL-2 cells (UniProt P01589 22-272; P14784 27-551; P31785 23-369)
T2 sequence (looked up) 1: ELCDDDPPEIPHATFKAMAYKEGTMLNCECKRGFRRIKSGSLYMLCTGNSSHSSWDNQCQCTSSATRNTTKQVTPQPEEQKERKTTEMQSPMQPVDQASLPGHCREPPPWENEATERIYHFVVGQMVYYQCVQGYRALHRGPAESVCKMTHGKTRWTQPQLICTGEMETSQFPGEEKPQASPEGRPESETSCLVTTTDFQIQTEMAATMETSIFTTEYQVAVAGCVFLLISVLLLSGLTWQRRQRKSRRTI
T2 sequence (looked up) 2: T1 sequence (looked up) 1
T2 sequence (looked up) 3: T1 sequence (looked up) 2

B1: Construct No 830 after cleavage by MMP-9 (antibody)
light: DIQMTQSPSSLSASVGDRVTITCRASQSISSYLNWYQQKPGKAPKLLIYAASSLQSGVPSRFSGSGSGTDFTLTISSLQPEDFATYYCQQFHKRSPQKFGQGTKVEIKRTVAAPSVFIFPPSDEQLKSGTASVVCLLNNFYPREAKVQWKVDNALQSGNSQESVTEQDSKDSTYSLSSTLTLSKADYEKHKVYACEVTHQGLSSPVTKSFNRGEC
heavy: not shown
notes: MMP-9 digest of m27 (K33); the sample also holds the released IL-2Rα, IL-2 and IL-2Rβ; also called n830 after cleavage; not shown: remnant of CM1 and linker after MMP-9 cleavage
B2: Construct No 690 after cleavage by MMP-9 (antibody)
light: DIQMTQSPSSLSASVGDRVTITCNVDQVIANWLNWYQQKPGKAPKLLIYAASSLQSGVPSRFSGSGSGTDFTLTISSLQPEDFATYYCQQMHPRAPKQFGQGTKVEIKRTVAAPSVFIFPPSDEQLKSGTASVVCLLNNFYPREAKVQWKVDNALQSGNSQESVTEQDSKDSTYSLSSTLTLSKADYEKHKVYACEVTHQGLSSPVTKSFNRGEC
heavy: not shown
notes: MMP-9 digest of m24; the sample also holds the released IL-2Rα and IL-2; also called n690 after cleavage; not shown: remnant of CM1 and linker after MMP-9 cleavage
B3: Construct No 770 after cleavage by MMP-9 (antibody)
light: B2 light
heavy: not shown
notes: MMP-9 digest of m28; the sample also holds the released IL-2Rα, IL-2 C125S and IL-2Rβ; also called n770 after cleavage; not shown: remnant of CM1 and linker after MMP-9 cleavage
B4: Construct No 780 after cleavage by MMP-9 (antibody)
light: B2 light
heavy: not shown
notes: MMP-9 digest of m29; the sample also holds the released IL-2Rα, IL-2 F42A and IL-2Rβ; also called n780 after cleavage; not shown: remnant of CM1 and linker after MMP-9 cleavage
B5: Construct No 800 after cleavage by MMP-9 (antibody)
light: B2 light
heavy: not shown
notes: MMP-9 digest of m31; the sample also holds the released IL-2Rα, IL-2 Q126T and IL-2Rβ; also called n800 after cleavage; not shown: remnant of CM1 and linker after MMP-9 cleavage
B6: Construct No 2 after cleavage by MMP-9 (antibody)
light: B2 light
heavy: not shown
notes: MMP-9 digest of m3; the sample also holds the released IL-2; also called n2 after cleavage; not shown: remnant of CM1 and linker after MMP-9 cleavage
B7: Construct No 676 after cleavage by MMP-9 (antibody)
light: B2 light
heavy: not shown
notes: MMP-9 digest of m23; the sample also holds the released IL-2Rα-(GGGGS)2-IL-2 fusion (no cleavable linker between the two) and IL-2Rβ; also called n676 after cleavage; not shown: remnant of CM1 and linker after MMP-9 cleavage
B8: Construct No 870 after cleavage by MMP-9 (antibody)
light: B2 light
heavy: not shown
notes: MMP-9 digest of m33; the sample also holds the released IL-2Rγ, IL-2 and IL-2Rα; also called n870 after cleavage; not shown: remnant of CM1 and linker after MMP-9 cleavage
B9: Construct No 790 after cleavage by MMP-9 (antibody)
light: B2 light
heavy: not shown
notes: MMP-9 digest of m30; the sample also holds the released IL-2Rα, IL-2 D20T and IL-2Rβ; also called n790 after cleavage; not shown: remnant of CM1 and linker after MMP-9 cleavage
B10: Construct No 41 after cleavage by MMP-9 (antibody)
light: B2 light
heavy: not shown
notes: MMP-9 digest of m8; the sample also holds the released IL-2 and IL-2Rα; also called n41 after cleavage; not shown: remnant of CM1 and linker after MMP-9 cleavage
B11: Construct No 651 after cleavage by MMP-9 (antibody)
light: B2 light
heavy: not shown
notes: MMP-9 digest of m22; the sample also holds the released IL-2Rα, IL-2 and IL-2Rβ; also called n651 after cleavage; not shown: remnant of CM1 and linker after MMP-9 cleavage
B12: Construct No 880 after cleavage by MMP-9 (antibody)
light: B2 light
heavy: not shown
notes: MMP-9 digest of m34; the sample also holds the released IL-2Rγ-(GGGGS)2-IL-2 fusion (no cleavable linker between the two) and IL-2Rα; also called n880 after cleavage; not shown: remnant of CM1 and linker after MMP-9 cleavage
B13: Construct No 1030 after cleavage by MMP-9 (antibody)
light: B2 light
heavy: not shown
notes: MMP-9 digest of m37; the sample also holds the released IL-2 Q126T and IL-2Rα; also called n1030 after cleavage; not shown: remnant of CM1 and linker after MMP-9 cleavage
B14: Construct No 1051 after cleavage by MMP-9 (antibody)
light: B2 light
heavy: not shown
notes: MMP-9 digest of m36; the sample also holds the released IL-2Rα-(GGGGS)2-IL-2 fusion (no cleavable linker between the two); also called n1051 after cleavage; not shown: remnant of CM1 and linker after MMP-9 cleavage
B15: Construct No 1021 after cleavage by MMP-9 (antibody)
light: B2 light
heavy: not shown
notes: MMP-9 digest of m35; the sample also holds the released IL-2Rα and IL-2; also called n1021 after cleavage; not shown: remnant of CM1 and linker after MMP-9 cleavage
B16: Construct No 450 after cleavage by MMP-9 (antibody)
light: B2 light
heavy: not shown
notes: MMP-9 digest of m16; the sample also holds the released IL-2, IL-2Rα and IL-2Rβ; also called n450 after cleavage; not shown: remnant of CM1 and linker after MMP-9 cleavage
B17: Construct No 291 after cleavage by MMP-9 (antibody)
chain 1: B2 light
chain 2: not shown
B18: Construct No 471 after cleavage by MMP-9 (antibody)
light: B2 light
heavy: not shown
notes: MMP-9 digest of m17; the sample also holds the released IL-2, IL-2Rα and IL-2Rβ; also called n471 after cleavage; not shown: remnant of CM1 and linker after MMP-9 cleavage
B19: Construct No 281 after cleavage by MMP-9 (antibody)
light: B2 light
heavy: not shown
notes: MMP-9 digest of m13; the sample also holds the released IL-2; also called n281 after cleavage; not shown: remnant of CM1 and linker after MMP-9 cleavage
B20: Construct No 490 after cleavage by MMP-9 (antibody)
light: B2 light
heavy: not shown
notes: MMP-9 digest of m20; the sample also holds the released IL-2, IL-2Rα (to 185) and IL-2Rβ; also called n490 after cleavage; not shown: remnant of CM1 and linker after MMP-9 cleavage
B21: Construct No 545 after cleavage by MMP-9 (antibody)
light: B2 light
heavy: not shown
notes: MMP-9 digest of m19; the sample also holds the released IL-2, IL-2Rα and IL-2Rβ; also called n545 after cleavage; not shown: remnant of CM1 and linker after MMP-9 cleavage
B22: Construct No 500 after cleavage by MMP-9 (antibody)
light: B2 light
heavy: not shown
notes: MMP-9 digest of m21; the sample also holds the released IL-2, IL-2Rβ and IL-2Rα; also called n500 after cleavage; not shown: remnant of CM1 and linker after MMP-9 cleavage
B23: Construct No 530 after cleavage by MMP-9 (antibody)
light: B2 light
heavy: not shown
notes: MMP-9 digest of m18; the sample also holds the released IL-2, IL-2Rα and IL-2Rβ; also called n530 after cleavage; not shown: remnant of CM1 and linker after MMP-9 cleavage

The binders below were run against T1, low-moderate affinity dimeric IL-2R … (assay: cell-based or functional assay).

Row | Binder | EC50 after cleavage IL-2, HEK Blue IL-2 βγ reporter assay [nM]
1 | B1 | 0.01
2 | B2 | 0.03
3 | B3 | 0.01
4 | B4 | 0.01
5 | B5 | 1.14
6 | B6 | 0.09
7 | B7 | 0.03
8 | B8 | 0.03
9 | B9 | 0.07
10 | B10 | 0.01
11 | B11 | 0.01
12 | B12 | 0.02

The binders below were run against T3, His-tagged human CD47 (human, UniProt Q08722 19-139, limits assumed) (assay: BLI, His-CD47 on HIS1K sensor, after MMP-9 treatment).
T3 construct: loaded on HIS1K biosensors at 2.5 µg/mL; also called target antigen; not shown: His tag
Method: The capacity of the masking domains to inhibit binding activity of the antibody was evaluated by Bio-Layer Interferometry (BLI). […] Binding experiments were performed to evaluate the masking efficiency and the binding recovery after cleavage of the masking domains. BLI was performed on an Octet RED96 system (Sartorius). His-tagged human CD47 was diluted at 2.5 μg/mL in Kinetic Buffer (KB) (Sartorius) and loaded on HIS1K biosensors (anti-His tag antibody biosensors, Sartorius) for 300 seconds. Loaded biosensors were dipped into antibodies diluted at 15 μg/mL in KB for 300 seconds to monitor association. Then, biosensors were transferred in KB for dissociation for 60 seconds. Binding profiles were then analyzed with ForteBio Data Analysis software.

Row | Binder | Binding after cleavage (BLI) [nm]
13 | B1 | 1.7
14 | B3 | 1.7
15 | B4 | 1.7
16 | B5 | 1.5
17 | B13 | 1.3
18 | B7 | 1.5
19 | B8 | 1.3
20 | B14 | 1.2
21 | B15 | 1.3
22 | B9 | 1.4
23 | B10 | 1.7
24 | B11 | 1.6
25 | B12 | 1.1

Each binder was assayed against T4, CD47 at the surface of Peak cells (human, UniProt Q08722 19-323) (assay: flow cytometry, Peak cells, after MMP-9 treatment).
T4 construct: whole, on cells; also called cell surface CD47
Method: Binding activity of antibody-cytokine/receptor fusions before and after cleavage was also evaluated by flow cytometry. Peak cells derived from HEK 293 which are human cells expressing CD47 were used to evaluate masking efficacy and binding recovery to CD47 by flow cytometry. Peak cells were diluted in cold FACS buffer (PBS, 2% BSA) to 1.2×10⁶ cells/mL. 3×10⁵ cells/well were added in a 96 well V-bottom plate. The plate was then centrifugated for 5 min at 1300 rpm, 4° C. Supernatants were removed and cells were washed twice using FACS buffer. A serial dilution of antibody-cytokine/receptor fusions previously digested with MMP-9 or not digested as described above was prepared in FACS buffer. An irrelevant antibody was included. Then, 150 μL of each diluted antibody were added in corresponding well and incubated for 30 min at 4° C. Cells were washed twice with FACS buffer and 100 μL of a mouse anti human Fc-PE conjugated secondary antibody were added and the plate was incubated for 20 min at 4° C. Cells were then washed twice with FACS buffer. Finally, 150 μL of SYTOX blue dead cell stain (ThermoFisher) diluted to 1/5000 in FACS buffer were added before detection by flow cytometry with Cytoflex (Beckman Coulter). Acquisition was performed with 10000 events for each well. Data were analyzed by FlowJo software.

Row | Binder | EC50 [nM]
26 | B2 | 0.4
27 | B3 | 0.5
28 | B4 | 1
29 | B16 | 0.4
30 | B5 | 1.5
31 | B6 | 0.4
32 | B17 | 0.4
33 | B18 | 0.3
34 | B19 | 0.9
35 | B13 | 0.8
36 | B7 | 1
37 | B8 | 1.3
38 | B14 | 1.7
39 | B15 | 1.3
40 | B9 | 1.6
41 | B20 | 0.5
42 | B10 | 0.2
43 | B11 | 0.7
44 | B21 | 0.6
45 | B12 | 2.6
46 | B22 | 0.8
47 | B23 | 0.4

Each binder was assayed against T2, high affinity trimeric IL-2R (IL-2Rα, …) (assay: cell-based or functional assay).

Row | Binder | EC50 after cleavage IL-2, HEK Blue IL-2 αβγ reporter assay [nM]
48 | B1 | 0.01
49 | B2 | 0.07
50 | B3 | 0.02
51 | B4 | 0.02
52 | B16 | 0.01
53 | B5 | 0.48
54 | B6 | 0.11
55 | B17 | 0.01
56 | B18 | 0.01
57 | B19 | 0.01
58 | B13 | 0.23
59 | B7 | 0.04
60 | B8 | 0.01
61 | B14 | 0.03
62 | B15 | 0.01
63 | B9 | 0.04
64 | B20 | 0.01
65 | B10 | 0.02
66 | B11 | 0.02
67 | B21 | 0.01
68 | B12 | 0.04
69 | B22 | 0.02
70 | B23 | 0.01
